# Reference: patent US20250382352A1 (SCG CELL THERAPY PTE, published 2025)
# Read-outs that look alike come from different tables or passages of the source.
# T1: HBsAg recombinant protein (hepatitis B virus)
# T1 chain: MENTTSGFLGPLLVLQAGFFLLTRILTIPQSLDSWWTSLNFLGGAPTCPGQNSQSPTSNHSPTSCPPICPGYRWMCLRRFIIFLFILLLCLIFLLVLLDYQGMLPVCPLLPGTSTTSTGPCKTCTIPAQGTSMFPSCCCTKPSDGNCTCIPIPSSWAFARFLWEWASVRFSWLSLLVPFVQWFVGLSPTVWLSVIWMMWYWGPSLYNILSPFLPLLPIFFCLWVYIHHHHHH
# How the values were obtained:
# [1] = target: T2, rhesus CD3ε recombinant protein (rhesus); test: ELISA, recombinant rhesus CD3ε
# T2 construct: also called rhesus CD38 [sic]
# [2] = target: T2, rhesus CD3ε recombinant protein; test: ELISA, recombinant rhesus CD3ε; remark: listed apart in the source
# [3] = target: T3, human CD3ε recombinant protein (human, UniProt P07766 23-126); test: ELISA, recombinant human CD3ε
# T3 construct: also called human CD3E; huCD3ε
# [4] = target: T1, HBsAg recombinant protein; test: ELISA, recombinant HBsAg
# [5] = target: T1, HBsAg recombinant protein; test: ELISA, recombinant HBsAg
# [6] = target: T3, human CD3ε recombinant protein; test: ELISA, recombinant human CD3ε; remark: listed apart in the source
# T3 sequence (P07766 23-126 limits assumed): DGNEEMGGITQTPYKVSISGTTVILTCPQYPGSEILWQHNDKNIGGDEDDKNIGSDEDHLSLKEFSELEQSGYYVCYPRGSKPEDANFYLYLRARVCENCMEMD
binder,measurement,setting,value
BsAb2-6 (C8 scFv fused to the C-terminus of the heavy chain of the murine anti-CD3 Ab via a linker) (bispecific antibody) chain 1: not shown chain 2: QAVVTQESALTTSPGETVTLTCRSSTGAVTTSNYANWVQEKPDHLFTGLIGGTNKRAPGVPARFSGSLIGDKAALTITGAQTEDEAIYFCALWYSNLWVFGGGTKLTVLRTVAAPSVFIFPPSDEQLKSGTASVVCLLNNFYPREAKVQWKVDNALQSGNSQESVTEQDSKDSTYSLSSTLTLSKADYEKHKVYACEVTHQGLSSPVTKSFNRGEC,EC50 (read off the curve),[1],~0.07 nM
same,EC50 (read off the curve),[2],~0.07 nM
same,EC50 (read off the curve),[3],~0.3 nM
same,EC50 (read off the curve),[4],~0.3 nM
same,EC50 (read off the curve),[5],~0.2 nM
same,EC50 (read off the curve),[6],0.1 to 0.2 nM
